Results as given in patent US20160333110A1 (CHIOME BIOSCIENCE, published 2016).

Tests used:
Experiment in all cases: PEPSCAN/CLIPS peptide ELISA, antibody 1 µg/mL
[1] = molecular target: T1, peptide No. 19 of Table 11 (SEQ ID NO: 227) (human)
T1 peptide: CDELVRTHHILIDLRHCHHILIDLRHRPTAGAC
Protocol: (§1) 5034 types of the synthesized peptides were covalently bound to PEPSCAN cards (455 peptides/card), and the binding of the synthesized peptides to antibodies was then analyzed by the ELISA method. […] After washing, the resultant was allowed to react with a 1000-fold diluted peroxidase-secondary antibody complex at 25° C. for 1 hour. After washing, a substrate solution (a solution containing 2,2′-azino-di-3-ethylbenzthiazoline sulfonate (ABTS) and 2 μL of 3% hydrogen peroxide solution) was added to the reaction solution, followed by a chromogenic reaction for 1 hour. The binding activity of the antibodies was quantified by photographing with a CCD camera and then performing an image analysis.

[2] = molecular target: T2, peptide No. 10 of Table 11 (SEQ ID NO: 218) (human)
T2 peptide: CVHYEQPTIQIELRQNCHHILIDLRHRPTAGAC
Protocol: as §1

[3] = molecular target: T3, peptide No. 8 of Table 11 (SEQ ID NO: 216) (human)
T3 peptide: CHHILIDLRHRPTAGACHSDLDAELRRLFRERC
Protocol: as §1

[4] = molecular target: T4, peptide No. 15 of Table 11 (SEQ ID NO: 223) (human)
T4 peptide: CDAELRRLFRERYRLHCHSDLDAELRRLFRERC
Protocol: as §1

[5] = molecular target: T5, peptide No. 11 of Table 11 (SEQ ID NO: 219) (human)
T5 peptide: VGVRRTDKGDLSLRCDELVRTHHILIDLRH
Protocol: as §1

[6] = molecular target: T6, peptide No. 6 of Table 11 (SEQ ID NO: 214) (human)
T6 peptide: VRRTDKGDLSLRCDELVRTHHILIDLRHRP
Protocol: as §1

- binding of 16-16 [1]: 534
- binding of 16-16 [2]: 602
- binding of 16-16 [3]: 620
- binding of 16-16 [4]: 566
- binding of 16-16 [5]: 601
- binding of 16-16 [6]: 670
B1: anti-hTROP-2 monoclonal antibody clone T6-16 (antibody, mouse IgG2a, V domains shown)
VH: EVQLQQSGPELVKPGASVKISCKASGYTFTDYNMHWVKQSHGKNLEWIGYIYPYNGGTGYNQRFKSRATMTVDKSSSTAYMELRSLTSDDSAVYYCAREDYGSSPSYAMDYWGQGTSVIVSS
VL: DVVMTQTPLSLPVSLGDQASISCRSSQSLVHGNGNTYLHWYLQKPGQSPKLLIYKVSNRFSGVPDRFSGSGSGTDFTLKISRVEAEDLGVYFCSQTTHVPTFGSGTKLEIK
notes: mouse IgG2a, hybridoma FERM BP-11346; also called T6-16 antibody
